The values below are quoted from earlier work in article PMC6175838.

The target in one data set is claudin-3 (Homo sapiens) (UniProt O15551). Put plainly: given as Ka.
The next data set deals with claudin-4 (Homo sapiens) (UniProt O14493). Put plainly: given as Ka.
Chain of UniProt O14493 (O14493 whole entry): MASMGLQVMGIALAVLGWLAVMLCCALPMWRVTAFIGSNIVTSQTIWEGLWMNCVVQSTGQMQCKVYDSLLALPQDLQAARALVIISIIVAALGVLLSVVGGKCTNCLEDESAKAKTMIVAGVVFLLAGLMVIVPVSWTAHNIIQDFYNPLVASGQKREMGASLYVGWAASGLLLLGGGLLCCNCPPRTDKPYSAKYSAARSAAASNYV

Chain of UniProt O15551 (O15551 whole entry): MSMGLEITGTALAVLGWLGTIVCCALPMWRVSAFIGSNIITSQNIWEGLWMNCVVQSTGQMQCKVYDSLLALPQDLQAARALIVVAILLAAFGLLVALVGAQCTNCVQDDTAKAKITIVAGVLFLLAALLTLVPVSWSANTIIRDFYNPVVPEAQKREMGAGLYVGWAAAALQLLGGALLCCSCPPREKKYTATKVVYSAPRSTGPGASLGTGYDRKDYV

The term Kd denotes the free concentration of one partner at which half of the binding sites on the other are occupied at equilibrium, for simple one-to-one binding. As for “C-CPE C-terminal domain (from UniProt P01558)”, the equilibrium dissociation constant (Kd) with claudin-3 (Homo sapiens) and with claudin-4 (Homo sapiens) was 10 nM each time.
